Experimental findings from the supplement of paper PMC9170038 are described below.

The subject of the data set is MS2 coat protein. Put plainly: apparent KD of MS2 coat protein; higher = weaker reporter binding. Particulars: Eterna round: R107. As for the experimental part:
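RNA-MaP round R107: designed RNA switches with theophylline, tryptophan, arginine or FMN aptamers are transcribed on-chip within common flanks. They are titrated with SNAP-549-labelled MS2 coat protein in RNA-MaP buffer (100 mM Tris pH 7.5, 80 mM KCl, 4 mM MgCl2), without ligand or with the indicated ligand. Median apparent KD per design.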

Setting [1] is: input ligand: theophylline 20 uM.
Setting [2] is: input ligand: theophylline 2 mM.
Where [3] appears, read: input ligand: tryptophan 2.4 mM.

Take “GGGCACAUGAGGAUCACCCAUGUCCAACGGCGAGGACCGGUACGGCCGCCACUCGGUAUAAGCUUCGAAAAGGAGGAUCCUGCAG [theeternabot_sameState_MS2_Trp_A_35]”: the “apparent KD of MS2 coat protein” value reads like this: (input ligand: arginine 13.2 mM) 20.4 nM; under setting [1], 56.3 nM; under setting [2], 47.7 nM.
Regarding “UGUAACAUGAGGAUCACCCAUGUGCACGAUACCAGCUUAUUGGUAGGCCCUUGGCAGCGUAUUCGGAAGAUGUAUAAUAUAUAUC [#26 SameState-TheophyllineA]”, the “apparent KD of MS2 coat protein” value reads like this: (input ligand: arginine 13.2 mM) 12.3 nM; under setting [1], 17.4 nM; under setting [3], 12.1 nM.
As to “UGGUGUAGGGUAAAUAGGCUGAGUACAGAAGGAGCGCGAAUAAACGCAGGUAGGUCGCUGGACACAUGAGGAUCACCCAUGUUGA [Same State Arginine A GF 29]”, the “apparent KD of MS2 coat protein” value was found to be 10.8 nM (input ligand: arginine 13.2 mM); 20.5 nM (input ligand: none); 31.9 nM under setting [1]; 27.3 nM under setting [2]; 21.2 nM under setting [3].
In the case of “AAUACCGGAUCGGCCGCCACUGGUUGGCCCUGUGUACAUGAGGAUCACCCAUGUCCAUCCCAAACCAGGACCGGGAUCUUUGUGC [Ededmate]”, the “apparent KD of MS2 coat protein” value (input ligand: arginine 13.2 mM) is 11.7 nM, the “apparent KD of MS2 coat protein” value under setting [1] is 15.8 nM and the “apparent KD of MS2 coat protein” value under setting [2] was 13.7 nM.
In the same order, the values of “AUGGUCGACGAUCUGCGAAAAGCAGAUCGACGAGGACCGGUACGGCCGCCACUCGUGUUCAUUAAACAUGAGGAUCACCCAUGUA [#15Tryptophan A Same State]” are 41 nM, 68.7 nM and 70.2 nM.
For “GCGUCGGUCGGAAGGAGCGACAUGAGGAUCACCCAUGUCUCCCGUUAUGGGAGUUCCUUAGGUCAGGUAGGUCGCCGACGGACGC [#1 Exclusion - Arginine B Attempt #19 (Inspired by Omei)]”, the “apparent KD of MS2 coat protein” value runs as follows: (input ligand: arginine 13.2 mM) 63.8 nM; (input ligand: none) 170 nM; under setting [1], 190 nM; under setting [2], 216 nM; under setting [3], 196 nM.
For “UGUAUGUGAUCUGAUACCAGCUAGCGGAAACGCAAGCUUGAGGAUCACCCAAGUGGAAUAAGCCCUUGGCAGCAGAUCGCAUACU [Denovo 5 #StaticStem #AlternativeMS2]”, the “apparent KD of MS2 coat protein” value runs as follows: (input ligand: arginine 13.2 mM) 215 nM; (input ligand: none) 266 nM; under setting [1], 197 nM; under setting [2], 15.8 nM; under setting [3], 376 nM.
For the sequence “ACACAAUACAUGAGGAUCACCCAUGUAAAACGAGGACCGGUACGGCCGCCACUCGAAUACAGGAAACCUCGGAAUAUUAAGUGAA [JR_ExcTryptA_Sub001]”, the “apparent KD of MS2 coat protein” value runs as follows: (input ligand: arginine 13.2 mM) 26.9 nM; under setting [1], 64.1 nM; under setting [2], 95.8 nM.
Regarding “GUAUUAAGAAAACUUGAUACAGUGGGUGAACGAGGACCGGUACGGCCGCCACUCGGACAUGAGGAUCACCCAUGUCCAUGUGAAA [AstrosExyTryA#11]”, the “apparent KD of MS2 coat protein” value runs as follows: (input ligand: arginine 13.2 mM) 17.4 nM; (input ligand: none) 19.1 nM; under setting [1], 18.6 nM; under setting [2], 17.2 nM; under setting [3], 37.7 nM.
“AUAAAUAAGGCGGCCGCCACUAAUAUAUUAAUAUUUUAUAUCCGACAUGAGGAUCACCCAUGUGGUAGGACCGGGCCAAUAAUUA [Same State - Tryptophan B]”: the “apparent KD of MS2 coat protein” value (input ligand: arginine 13.2 mM) stood at 20.4 nM, the “apparent KD of MS2 coat protein” value under setting [1] was found to be 43.4 nM and the “apparent KD of MS2 coat protein” value under setting [2] amounted to 25 nM.
Regarding “UCGGUGCUCUACAUGAGGAUCACCCAUGUCCGAGGACCGGUACGGCCGCCACUCGCAAUCAAACAGACGUGGGCCAACUUUGCGU [Tiribeesqu]”, the “apparent KD of MS2 coat protein” value worked out at 11 nM (input ligand: arginine 13.2 mM), 12.1 nM under setting [1] and 11 nM under setting [2].
“ACGAUAGCACACGAGGAUCACCCGUGUGAUACCAGCCUGGAAACAGGCCCUUGGCAGCACACAAUAAAAGUGUAACUAUCGAAUA [TheoAX4 #MicroSwitchBubble #AlternativeMS2]”: the “apparent KD of MS2 coat protein” value was determined as 40.2 nM (input ligand: arginine 13.2 mM); 54.2 nM (input ligand: none); 128 nM under setting [1]; 161 nM under setting [2]; 56.1 nM under setting [3].
In the same order, the values of “GCACCAGGUACGGAUACCAGAGCAAGCCAAAUGAGUGAACUUGAGGAUCACCCAAGUUUGCUCCCUUGGCAGCCGUACCUGGUGC [ETB NP+V+V2 #12 Diff Apt, +-Same Structure]” are 7.29 nM, 9.39 nM, 11.4 nM, 29.2 nM and 8.49 nM.
Consider “AAUUUCGUAGGUAAAAGUUUAGAAACUGAAGGAGCGUGGUAUUACACAGGUAGGUCGCAGAUUUUACAUGAGGAUCACCCAUGUU [JR_SSArginiA_Sub008]”, for which the “apparent KD of MS2 coat protein” value amounted to 20.6 nM (input ligand: arginine 13.2 mM); 22.1 nM (input ligand: none); 22 nM under setting [1]; 21.7 nM under setting [2]; 22.8 nM under setting [3].
On to “ACAUGAGGAUCCGAUACCAGCCACAUGAGGAUCACCCAUGUAGUACAUGAGGAUCACCCAGGCCCUUGGCAGCGGACAUGAGGAU [Exclusion - Theophylline B]”, for which the “apparent KD of MS2 coat protein” value was found to be 95.9 nM (input ligand: arginine 13.2 mM), 331 nM under setting [1] and 149 nM under setting [3].
In the same order, the values of “AUAUGAUCAUGUGAUACCAGAAAUGGUAGUCUUCACUGGAUUACAUGAGGAUCACCCAUGUUCCCUUGGCAGCAUAUGAUCAUAU [#03 Exclusion-TheophyllineB]” are 31.7 nM, 68.2 nM and 43.9 nM.
On to “AACAUGAGGAUCACCCAUGUGUCCUCGAAACGAGGACCGGUACGGCCGCCACUCGAAAGGUGUUGACGAAAAGUCAGCACCAAAA [Mat - Exclusion - Trytophan A - D15]”, for which the “apparent KD of MS2 coat protein” value (input ligand: arginine 13.2 mM) stood at 122 nM, the “apparent KD of MS2 coat protein” value under setting [1] is 351 nM and the “apparent KD of MS2 coat protein” value under setting [2] was 412 nM.
